Laboratory results taken from PMC4417169, “Significance of ligand interactions involving Hop2-Mnd1 and the RAD51 and DMC1 recombinases in homologous DNA repair and XX ovarian dysgenesis” (Nucleic Acids Research, 2015).

B5: human RAD51 (natural protein, UniProt Q06609 1-339, looked up)
chain: MAMQMQLEANADTSVEEESFGPQPISRLEQCGINANDVKKLEEAGFHTVEAVAYAPKKELINIKGISEAKADKILAEAAKLVPMGFTTATEFHQRRSEIIQITTGSKELDKLLQGGIETGSITEMFGEFRTGKTQICHTLAVTCQLPIDRGGGEGKAMYIDTEGTFRPERLLAVAERYGLSGSDVLDNVAYARAFNTDHQTQLLYQASAMMVESRYALLIVDSATALYRTDYSGRGELSARQMHLARFLRMLLRLADEFGVAVVITNQVVAQVDGAAMFAADPKKPIGGNIIAHASTTRLYLRKGRGETRICKIYDSPCLPEAEAMFAINADGVGDAKD
notes: RAD51, human; source: E. coli, purified

Assays:
Settings in all cases: both partners purified
[1] = molecular target: T1, Hop2 (G203N)-Mnd1, MBP-tagged (mouse, UniProt O35047 1-217; Q8K396 1-205, G203N); assay: pull-down; amylose resin captures MBP-tagged Hop2-Mnd1 or mutant incubated with RAD51 or DMC1; buffer A without imidazole; 4 C; SDS-PAGE, Coomassie
T1 construct: Hop2, mouse; Mnd1, mouse; also called the G203N mutant; source: E. coli, purified; not shown: MBP, N-terminal, kept
T1 sequence (looked up) 1: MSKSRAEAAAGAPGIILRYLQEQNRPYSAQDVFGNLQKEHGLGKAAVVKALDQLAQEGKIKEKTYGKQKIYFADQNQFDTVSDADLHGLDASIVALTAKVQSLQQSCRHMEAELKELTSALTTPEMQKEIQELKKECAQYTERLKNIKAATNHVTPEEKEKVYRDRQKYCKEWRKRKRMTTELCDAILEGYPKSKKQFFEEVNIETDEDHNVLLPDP
T1 sequence (looked up) 2: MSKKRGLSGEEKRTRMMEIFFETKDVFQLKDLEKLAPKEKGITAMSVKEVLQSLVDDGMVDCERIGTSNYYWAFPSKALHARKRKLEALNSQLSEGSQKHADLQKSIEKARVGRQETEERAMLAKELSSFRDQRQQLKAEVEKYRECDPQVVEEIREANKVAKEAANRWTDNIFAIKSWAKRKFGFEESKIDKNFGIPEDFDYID

human RAD51 [2] = molecular target: B5; assay: pull-down; Ni2+-NTA resin captures (His)6-Hop2-Mnd1 or (His)6-Mnd1 (5 uM) incubated with RAD51 (8 uM); buffer A (25 mM Tris-HCl pH 7.5, 10% glycerol, 0.5 mM EDTA, 0.01% Igepal, 10 mM imidazole), 50-250 mM KCl, with or without 2 mM MgCl2 and 2 mM ATP (or other nucleotides); 4 C; SDS-PAGE, Coomassie
human RAD51 [3] = molecular target: B5; assay: pull-down; affinity pulldown of RAD51 with truncation mutants of Hop2-Mnd1 (Supplementary Figure S3b, c); resin and tag not told
[4] = molecular target: T2, Hop2-Mnd1 (R64A/Y70A/Y71A) (mouse, UniProt O35047 1-217; Q8K396 1-205, R64A | Y70A | Y71A); assay: pull-down; affinity pulldown of RAD51 with the DNA binding mutants of Hop2-Mnd1; only summarized in Table 1; resin and tag not told
T2 construct: Hop2, mouse; Mnd1, mouse; also called Hop2-Mnd1-RYY; source: E. coli, purified
T2 sequence (looked up) 1: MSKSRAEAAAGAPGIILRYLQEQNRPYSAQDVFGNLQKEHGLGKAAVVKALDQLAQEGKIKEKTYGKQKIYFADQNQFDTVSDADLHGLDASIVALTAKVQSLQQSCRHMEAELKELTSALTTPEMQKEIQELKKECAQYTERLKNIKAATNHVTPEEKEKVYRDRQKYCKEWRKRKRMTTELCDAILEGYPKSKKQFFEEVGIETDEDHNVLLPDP
T2 sequence (looked up) 2: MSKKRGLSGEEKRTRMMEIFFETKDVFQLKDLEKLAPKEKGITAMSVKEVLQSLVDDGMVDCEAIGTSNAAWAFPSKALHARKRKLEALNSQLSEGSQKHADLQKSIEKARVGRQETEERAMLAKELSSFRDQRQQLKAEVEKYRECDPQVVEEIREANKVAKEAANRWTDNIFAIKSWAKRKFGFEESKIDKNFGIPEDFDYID

Hop2-Mnd1 (KYK+RYY) = molecular target: T3, Hop2-Mnd1 (KYK+RYY) (mouse, UniProt O35047 1-217; Q8K396 1-205, K63A | Y65A | K67A | R64A | Y70A | Y71A); assay: as above
T3 construct: Hop2, mouse; Mnd1, mouse; also called Hop2-KYK-Mnd1-RYY; Hop2-KYK/Mnd1-RYY; source: E. coli, purified
T3 sequence (looked up) 1: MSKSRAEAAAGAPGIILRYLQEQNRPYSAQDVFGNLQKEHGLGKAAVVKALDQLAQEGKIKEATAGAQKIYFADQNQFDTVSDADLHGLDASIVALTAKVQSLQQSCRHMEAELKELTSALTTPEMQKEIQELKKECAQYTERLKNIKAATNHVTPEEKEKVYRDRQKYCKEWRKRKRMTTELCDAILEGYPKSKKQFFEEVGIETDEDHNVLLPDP
T3 sequence (looked up) 2: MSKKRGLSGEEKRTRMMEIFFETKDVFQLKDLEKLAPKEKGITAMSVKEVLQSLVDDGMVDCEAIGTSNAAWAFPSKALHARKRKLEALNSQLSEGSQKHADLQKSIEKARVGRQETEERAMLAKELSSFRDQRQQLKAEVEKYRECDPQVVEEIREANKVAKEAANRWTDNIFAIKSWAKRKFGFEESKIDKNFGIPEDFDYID

Hop2 (R176A)-Mnd1 = molecular target: T4, Hop2 (R176A)-Mnd1 (mouse, UniProt O35047 1-217; Q8K396 1-205, R176A); assay: as above
T4 construct: Hop2, mouse; Mnd1, mouse; source: E. coli, purified
T4 sequence (looked up) 1: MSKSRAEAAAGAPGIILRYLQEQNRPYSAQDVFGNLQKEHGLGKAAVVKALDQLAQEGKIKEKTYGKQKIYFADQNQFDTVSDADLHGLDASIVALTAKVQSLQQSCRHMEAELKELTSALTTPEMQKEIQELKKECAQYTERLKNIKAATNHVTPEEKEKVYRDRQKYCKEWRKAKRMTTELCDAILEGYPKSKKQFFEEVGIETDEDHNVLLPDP
T4 sequence (looked up) 2: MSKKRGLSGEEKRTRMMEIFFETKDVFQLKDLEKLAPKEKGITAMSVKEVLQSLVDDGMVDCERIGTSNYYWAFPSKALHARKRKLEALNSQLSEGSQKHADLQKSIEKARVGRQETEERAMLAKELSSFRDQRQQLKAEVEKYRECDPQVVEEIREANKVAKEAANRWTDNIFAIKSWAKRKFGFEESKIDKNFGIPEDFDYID

[5] = molecular target: T5, Hop2 (K63A/Y65A/K67A)-Mnd1 (mouse, UniProt O35047 1-217; Q8K396 1-205, K63A | Y65A | K67A); assay: as above
T5 construct: Hop2, mouse; Mnd1, mouse; also called Hop2-KYK-Mnd1; source: E. coli, purified
T5 sequence (looked up) 1: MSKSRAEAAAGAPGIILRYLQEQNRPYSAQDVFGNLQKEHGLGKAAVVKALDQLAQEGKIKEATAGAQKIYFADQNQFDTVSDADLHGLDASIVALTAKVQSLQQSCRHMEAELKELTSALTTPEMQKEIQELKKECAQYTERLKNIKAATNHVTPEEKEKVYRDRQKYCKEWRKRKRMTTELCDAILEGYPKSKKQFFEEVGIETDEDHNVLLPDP
T5 sequence (looked up) 2: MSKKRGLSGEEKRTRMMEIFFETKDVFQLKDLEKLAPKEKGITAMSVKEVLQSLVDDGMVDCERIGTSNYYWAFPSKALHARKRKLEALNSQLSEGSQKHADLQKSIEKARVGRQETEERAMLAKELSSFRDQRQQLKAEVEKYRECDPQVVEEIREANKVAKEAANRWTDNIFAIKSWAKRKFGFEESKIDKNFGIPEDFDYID

B1: human DMC1 (natural protein, UniProt Q14565 1-340, looked up)
chain: MKEDQVVAEEPGFQDEEESLFQDIDLLQKHGINVADIKKLKSVGICTIKGIQMTTRRALCNVKGLSEAKVDKIKEAANKLIEPGFLTAFEYSEKRKMVFHITTGSQEFDKLLGGGIESMAITEAFGEFRTGKTQLSHTLCVTAQLPGAGGYPGGKIIFIDTENTFRPDRLRDIADRFNVDHDAVLDNVLYARAYTSEHQMELLDYVAAKFHEEAGIFKLLIIDSIMALFRVDFSGRGELAERQQKLAQMLSRLQKISEEYNVAVFVTNQMTADPGATMTFQADPKKPIGGHILAHASTTRISLRKGRGELRIAKIYDSPEMPENEATFAITAGGIGDAKE
notes: DMC1, human; source: insect cells infected with a recombinant DMC1 baculovirus, purified
binding result [1]: binds

B2: (His)6-tagged Mnd1 (natural protein, mouse, UniProt Q8K396 1-205, looked up)
chain: MSKKRGLSGEEKRTRMMEIFFETKDVFQLKDLEKLAPKEKGITAMSVKEVLQSLVDDGMVDCERIGTSNYYWAFPSKALHARKRKLEALNSQLSEGSQKHADLQKSIEKARVGRQETEERAMLAKELSSFRDQRQQLKAEVEKYRECDPQVVEEIREANKVAKEAANRWTDNIFAIKSWAKRKFGFEESKIDKNFGIPEDFDYID
notes: Mnd1, mouse, without Hop2; also called purified Mnd1 alone; source: purified
binding result (human RAD51 [2]): binds

B3: Hop2^126-217-Mnd1 (complex, mouse)
chain 1: MQKEIQELKKECAQYTERLKNIKAATNHVTPEEKEKVYRDRQKYCKEWRKRKRMTTELCDAILEGYPKSKKQFFEEVGIETDEDHNVLLPDP
chain 2: MSKKRGLSGEEKRTRMMEIFFETKDVFQLKDLEKLAPKEKGITAMSVKEVLQSLVDDGMVDCERIGTSNYYWAFPSKALHARKRKLEALNSQLSEGSQKHADLQKSIEKARVGRQETEERAMLAKELSSFRDQRQQLKAEVEKYRECDPQVVEEIREANKVAKEAANRWTDNIFAIKSWAKRKFGFEESKIDKNFGIPEDFDYID
notes: Hop2, mouse, residues 126-217; Mnd1, mouse; source: E. coli, purified
binding result (human RAD51 [3]): binds

B4: Hop2-Mnd1^100-205 (complex, mouse)
chain 1: MSKSRAEAAAGAPGIILRYLQEQNRPYSAQDVFGNLQKEHGLGKAAVVKALDQLAQEGKIKEKTYGKQKIYFADQNQFDTVSDADLHGLDASIVALTAKVQSLQQSCRHMEAELKELTSALTTPEMQKEIQELKKECAQYTERLKNIKAATNHVTPEEKEKVYRDRQKYCKEWRKRKRMTTELCDAILEGYPKSKKQFFEEVGIETDEDHNVLLPDP
chain 2: HADLQKSIEKARVGRQETEERAMLAKELSSFRDQRQQLKAEVEKYRECDPQVVEEIREANKVAKEAANRWTDNIFAIKSWAKRKFGFEESKIDKNFGIPEDFDYID
notes: Hop2, mouse; Mnd1, mouse, residues 100-205; source: E. coli, purified
binding result (human RAD51 [3]): binds

B5
binding result [4]: binds | binding result (Hop2-Mnd1 (KYK+RYY)): binds | binding result (Hop2 (R176A)-Mnd1): binds | binding result [5]: binds | binding result [1]: binds
